Laboratory results as given in the domain aggregation screens of Martell et al. (2025).

assay: soluble fraction after stress (log2 fold change); higher = more stays soluble; pooled small domains, quantitative proteomics; settings: stress: 75 degC
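Further: 20 min heating vs room temperature control held 20 min.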

Going from “HMDEWFPVNDDYKFMVGDEVRTPDGLVKVVATHNDSATFYGKIITPIHDDVLKGETYEYRSYEAQVLA” to “HMDEWKRKELWDAIARLPKIQRMVVTMRTTENLPYKEIAKIMNISENSAKVNYHHAVEALKIFF”, the “soluble fraction (log2)” value falls from -0.331 to -2.84.

Going from “HMDEYGEVQALQRAGQTSEALARADRHIAAHPNDPQMRFVKANLLSAGGRAGEAETLLVQLTRD” to “HMDFDLIAIFEEQFARALSPIEINIIKEWKNSNYSDDMIVKALKEAVKSQVFNFRYIERILINWSQNG”, the “soluble fraction (log2)” value falls from -0.0543 to -1.9.

Going from “HMDFDVELTSAGTAKVKVIKAVREATGLGLKEAKDLVDNAPSIVKEGLDEAAANDLKAALEETGASVTL” to “HMDFEEGAVKWFNTKKGYGFITRDQGDDIFVHFRNIKAQSRRSLTDGERVTFVVTEGDKGLQADHVSPV”, the “soluble fraction (log2)” value falls from 0.0189 to -0.411.

Compared with “HMDFGHWAAHKLEQMSEYRLRHGEAVAIGIALDVLYSVRQGLLARPAAERILSLLERLGFTLFDPELKS”, “HMDFLKSVDLSKYSKVESLILSHLSKGDFDIDDFIRSFSLGTDEVTRAIVSLEIEGIILRKGNRIFRKKS” is lower in “soluble fraction (log2)” value: 0.224 for the first, -1.38 for the second.

Going from “HMDFMNSEIKKIVEDLKLTLQSLNYTKNEIKSILPVINKETDNLIKKEKYASFENLLRLAMNHLDNN” to “HMDFTPDQIARLDDIISRYKDKPGGLIPVLEEAQVALEYLPIGVQKRIAKGLNLPLSRVYGVVTFYSFFTM”, the “soluble fraction (log2)” value rises from -0.751 to -0.0122.

First: HMDFVKGDTVVFIDAFMPDHLMTIHKVQGEGILLDGNHKFALAHLIRHASTVELNAKRRLSLTEQS
Second: HMDGASLLDIDGDGKVTPTIDGLLLMRWQFGTRGAALIGGISFPAGALRTTVNAIELHMRRLSETT
The “soluble fraction (log2)” value of the first is lower: -2.42 for the first, -0.699 for the second.

Going from “HMDGDVAVKGGDGVLEVRLANAANVRVYNLAGRLMADYTGTELHMPLPKGVYMVVAGDNRTKVVV” to “HMDGEINPYTGREYVTNSVRMHPRRIGYVQVYSRKDHKWTDMTEWAFLGEQERKKVLLGKAYEPPVYL”, the “soluble fraction (log2)” value falls from -0.476 to -1.91.

Going from “HMDGEMRRKRILQLLSEQTKPLSGTALAKQFGVSRQVIVQDIALLKSKEPAIISTYRGYVLGR” to “HMDGFAEFWSAYPKKVGKGAAEASWRKHRPPLQTVLDAVKRQAESDQWRKDGGQFIPNPATWLNQKRWEDD”, the “soluble fraction (log2)” value rises from -1.25 to -0.0375.

First: HMDGIIIPDVSGKSYAEAVATLNEKGFKVEKGEDAGSSLAKDLVSYTNPAAGNRAKSGATISVFVSTGANA
Second: HMDGKTALQEIVASSGWSPPEYKVSESGPDHDKDFVAYAIVNGVAYPEGHGKSKREAEQVAARIAFEALSK
The “soluble fraction (log2)” value of the first is higher: 0.407 for the first, -0.0295 for the second.

Going from “HMDGMRASDMVRAALAGAGKTQKELAEHMGWTPQNLSGRLKNNSLTFDELSKALHFAGYEVSMSDANGAG” to “HMDGNVPSVEGKPLSGAKYILETYGYKTGTVTEVNSEDVPAGIVISQNPARGTTLANGGSVNLQVSLG”, the “soluble fraction (log2)” value rises from 0.0394 to 0.645.

Compared with “HMDGPGAGGRFLAEDLGTGKMTLEALQRHYVTLVYSRTGKYEETARRLEIDRRTVKKYLDEELLAELRET”, “HMDGQGIRSITPEYYLSDSATKMPDASSSGWKSVPDDYIDKHYYWVRSKILWDDGTYTTTTPVL” is lower in “soluble fraction (log2)” value: 0.0914 for the first, -0.17 for the second.

First: HMDGRVQATAEKLRAALDRLARSSVGSPMIERQLTVAALAREARVGRNAIYANHRDILDELIRVRQQRRA
Second: HMDGTAKVAHMLVNELETFNRLKKHEIAYMLHIQPETLSRILNKLTRNGTIEIEKNSVVILNIQELKEIY
The “soluble fraction (log2)” value of the first is higher: 0.155 for the first, -1.95 for the second.

Going from “HMDGVNRDKIEYRLDDLYYLKGSDAPYTGKVFEEWSGQQRVETNYIDGKLDGLSESWHENGQKASEVNY” to “HMDHFLRRFQVEGLNLEKLLRLAAEREMDLLQVRRSGRRMTGLVAEKRLPELEELAAQGGWALRLGEY”, the “soluble fraction (log2)” value falls from 0.486 to -0.843.

“HMDHSSLIKKLRLERGLSQKKLAQGISQRSTLASFENNATKISYNILIQYLDRMNVTLEEYQFMLDGNNL” and “HMDHWQSVNSALELLEVSRRTLYDYISRKKLQTKKEGKYRYVWIDDDVIEEIKTSKSAYIEINN” are within 0.2 log units of each other in “soluble fraction (log2)” value: -2.27 for the first, -2.21 for the second.

Compared with “HMDIAATTVKQKIRTLLADEDAARPLSDQKIADALAEDGIDVARRTVAKYREELGIEPSWARKR”, “HMDIDLGAVEEQAVKGSGPGGQKMNKTSSGVLLRYRLGEELVLVKWTRERQHSLNRFLALRELVDEIEAR” is higher in “soluble fraction (log2)” value: 0.106 for the first, 0.976 for the second.

First: HMDIFFEKIFNILIGYNQNQENLISEKSILNFHLSHKSNSNFEYIPDEKTPKYIWKYLSNYNLLE
Second: HMDIFLPDVKGYDLIPSFRRHLPDIDVIAMTGYNTRALESAVRQQDVLFYMIKPFEASQLKEILEHLVK
The “soluble fraction (log2)” value of the first is lower: -0.439 for the first, -0.16 for the second.

First: HMDIKEIIKNRRIELGLTLKEVATAVGVSEGTVSRWESGNITNMKRNKIAALAKTLQIPPTTI
Second: HMDIKKHISATLKREMEKRGLNFMEFSTELGIPRTTLQGYLKGTSSPQADSLEELADKLGISPAELVSG
The “soluble fraction (log2)” value of the first is lower: -0.618 for the first, -0.0134 for the second.

Going from “HMDIMLLLYKNIKKRRLEIGMSQEELAQKTGYTSRSSIAKIEKGEVDLQLSKIKLFANALRVSQSELMG” to “HMDIMTVGERVKKLAEKQGISLRELAKKAELSYNTVYSITRRGSERVAPDTISRLANALGVNVNELT”, the “soluble fraction (log2)” value rises from -3.49 to -0.263.

First: HMDINEIILKVASEKKTFKTSDVLEALDNNYTKQHVSALISAMVKKGILVKAGSTAKSTYALPENASLL
Second: HMDINIETLNYYVGKAKIPLSELRISVKNIDLFLSGEKQPTFNQLSSIAKKLNIPTGLLLLDESIEV
The “soluble fraction (log2)” value of the first is higher: -1.26 for the first, -3 for the second.

Compared with “HMDIPGITAVKPQAAFYMFPKIDVKKFNIVNDEKFALDLLQDKKILIVQGSGFNWKQPDHFRVV”, “HMDIRVAHVDDDMSFGEAFAQARSQVGPGGVFEWHGKLYGTYTAEEWASMSPAERSQYQQAVFN” is lower in “soluble fraction (log2)” value: 0.177 for the first, -0.133 for the second.

First: HMDIVLPFSFAKRHGVVLSERQGETELLYLKGLPVRVLAEARRVLRQEFTVRQVEQAVFDKALSESYQN
Second: HMDIYLDDINRKILHLLSQGVKTKSLRDYIDLSMSAIEKRKKHLKDLFLIEDGKDETLLSEARKKGF
The “soluble fraction (log2)” value of the first is higher: -0.957 for the first, -1.19 for the second.

“HMDKAGWLPARVRLADYPALKQLAWQVQGVDELTPREALGIYERNWRHLDEAALLPRERNLIDALRLAFG” and “HMDKEQVTFIFRDIDIALRSLDYPIKDIKNTLNIIKSEFSNSKSTELNEQKINFENILKEAISILENND” are within 0.2 log units of each other in “soluble fraction (log2)” value: -0.72 for the first, -0.855 for the second.

Going from “HMDKFKDVGARIREARKVQKLSQADLAERLQISTSHMSDIENGKKNIGLDIFMRLTEALQVSADWLL” to “HMDKFTYVVKKEDEQYQIKDILRHNFTFSSRLRKKLKQNNSIFLNGAETVGWATPKEGDIISVRLP”, the “soluble fraction (log2)” value falls from -0.437 to -0.883.

“HMDKKEFGKRLKNLRIRNKMSQQAMADSLGYTSRSTINKIEEGINEMSYDKIVRLMELYGLSRPDLGLEPI” and “HMDKKTMFNEALAKLVSYATAHDNLITMEDVKSFFNGLIDDDSQYKLIYDYLSINKIEIKGFT” are within 0.2 log units of each other in “soluble fraction (log2)” value: -0.439 for the first, -0.465 for the second.

Compared with “HMDKLEKRILDYLLQKSAIDGSTILKISHREMAMDLGTAREVVTRILKKLETGGFVRQGENYLEILK”, “HMDKPIFTLRENEVLYWASMGKTYAEIATIVGISVRTVKFHMGNVVSKLGVSNARQAIRLGVELDLITPMQ” is lower in “soluble fraction (log2)” value: -0.518 for the first, -2.03 for the second.

“HMDKSFYETFEKIGHGDFDKGLNHVWQHANDGNGTATLLLSKLFLEFGDLDNFEKYLNISAEQSNPVAMKI” and “HMDKSNEVLMNHYRKQEINQAKKRLEEEKMSIIQVLQLTNKEVITTDELLEALYISKEQLLDEIINTTQ” are within 0.2 log units of each other in “soluble fraction (log2)” value: -0.357 for the first, -0.354 for the second.

First: HMDKSPVLQLNRDVPAGQQISADDFRTVEIGADGAFRSVPSSDLNAMVGSYAKVRLIAGTLLAREALQSG
Second: HMDKSRPVLRVGDSGDWVSKLQTALLEFGYRVAVDGVFGEHTKSAVVHFQNGRRLIADGVVGNLTWDALL
The “soluble fraction (log2)” value of the first is higher: 0.0261 for the first, -2.4 for the second.

Going from “HMDKWFPVSSDHKVQVGDYLRTADGLVKVEATHNEYGTFYGKIITAIHDDVVKGETYEYRIDDVQVLA” to “HMDLAPLQTVDIAINYAKAAELAAILKSSEGGILSDRGGVTVDERTNTLLIRDTLESIDEARKTI”, the “soluble fraction (log2)” value rises from -0.00685 to 0.224.

Going from “HMDLATQHAAKVNAAILAARRFEREGSWRQVAAKYSEALQLMPGNEQASRGYQQAMAMLDERD” to “HMDLDSGVAVLRTLMSQHNLQTDDFQNEIGGKSMVSMILNGTRKLSKNHIQALSGRFNLSPALFF”, the “soluble fraction (log2)” value falls from -0.0717 to -0.819.

“HMDLEELSNKMNNVFESLSSDLRDIIIMSDIEGLSYEEISHKINIPIGTVRSRLHRARDLMVRVIKEN” and “HMDLGEQIIEKLRAAGGFLAITDKSPAEEIYELFATSKKNYKKAVGGLYKKGLLVIEDDGIRLTPAGR” are within 0.2 log units of each other in “soluble fraction (log2)” value: -0.517 for the first, -0.503 for the second.

Compared with “HMDLHERISSVLLGTGKSNDELAQILGVNKNTISAYKNKHGDLKGIVLEGIVKHFDINPVWLLTGSGTR”, “HMDLKSLEFAIVENVQRHDLNPLEEAQGYKRLIDEFSYDQDKVSKFIGKSRSYITNSLRLLNLPLEVLEF” is higher in “soluble fraction (log2)” value: -0.577 for the first, 0.125 for the second.

Compared with “HMDLKTNSQLINELEKKIKRPFDREIKNYLNKNLSTDRMISNNEIDKIILFYSGNNEIPNIEKISLILNDN”, “HMDLPATVPNLEGLTEVTARNKLTVAGLSLGEVKEVESDKEKGTVVGQSIAYGKRVTKGTKVDIEISSGK” is higher in “soluble fraction (log2)” value: -0.0499 for the first, 0.194 for the second.

First: HMDLPDTLSMPNALKVLEDNGFPTSKAKLYKMTSQEQIPFMKYGNKLVFSRKALIEWAHKQLV
Second: HMDLPREKRIEIGLTYIYGIGLKTSQKILAATGIDPNTRVKDLDETTVSKLREYIDHNYRVEGELRS
The “soluble fraction (log2)” value of the first is lower: -1.94 for the first, -1.32 for the second.

Going from “HMDLSLQTFNELKTELTNNKITIDQFSEKINEFDITSDIFEISRELFLDDTLSLEDYLVVIENVLIN” to “HMDLSQTVQAKALARVNVREGAGTHFKSLGKLKKGELLPVFRVGNSWASIWWKGRVAYVHTDYLRFESA”, the “soluble fraction (log2)” value falls from -0.327 to -1.98.

With “HMDLTKLFDHDSEYGKSYVFGKITDEMIARAEQTLGYRMPASYIELLKVQNGGMISDELDESWLTTIYGIG” the “soluble fraction (log2)” value was -0.359.
